Patent publication US20140087995A1 (published 2014)
Read-outs that look alike come from different tables or passages of the source. Numbered stars: 1 amine (or outer) side, 2 acyl side, 3 side chain; on linkers, the order of the positions; unused ones are H or OH. Bridge positions count the residues as written; N and C are the ends. Side chains are listed from the residue outwards. Ends that are not written are not given here. * marks the point of attachment. C20 diacid = O=C(O)CCCCCCCCCCCCCCCCCCC(=O)*; γGlu = O=C(O)[C@H](CCC(=O)[*:2])N[*:1]; AEEA = NCCOCCOCC(=O)O

T1: human calcitonin receptor (human, UniProt P30988 25-474)
T1 sequence (looked up): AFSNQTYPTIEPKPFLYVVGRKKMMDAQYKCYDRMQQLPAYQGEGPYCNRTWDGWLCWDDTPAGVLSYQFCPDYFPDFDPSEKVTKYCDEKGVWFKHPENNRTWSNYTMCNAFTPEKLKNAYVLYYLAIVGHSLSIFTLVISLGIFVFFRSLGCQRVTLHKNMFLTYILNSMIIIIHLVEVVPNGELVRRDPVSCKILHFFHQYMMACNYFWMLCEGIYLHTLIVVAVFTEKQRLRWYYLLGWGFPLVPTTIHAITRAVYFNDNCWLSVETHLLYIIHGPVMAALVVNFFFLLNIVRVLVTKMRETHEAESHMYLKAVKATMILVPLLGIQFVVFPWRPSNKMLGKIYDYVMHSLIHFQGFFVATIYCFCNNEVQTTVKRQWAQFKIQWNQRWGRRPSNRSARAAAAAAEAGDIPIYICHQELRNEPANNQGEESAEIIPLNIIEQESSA

T2: rat amylin receptor (rat calcitonin receptor + rat RAMP 3) (rat, UniProt P32214 25-516; Q9JJ73 23-147)
T2 construct: whole, on cells; membranes of transiently transfected BHK tk'ts 13 cells (Assay VI); also called rAmylin-R; rat amylin 3(a) receptor
T2 sequence (looked up) 1: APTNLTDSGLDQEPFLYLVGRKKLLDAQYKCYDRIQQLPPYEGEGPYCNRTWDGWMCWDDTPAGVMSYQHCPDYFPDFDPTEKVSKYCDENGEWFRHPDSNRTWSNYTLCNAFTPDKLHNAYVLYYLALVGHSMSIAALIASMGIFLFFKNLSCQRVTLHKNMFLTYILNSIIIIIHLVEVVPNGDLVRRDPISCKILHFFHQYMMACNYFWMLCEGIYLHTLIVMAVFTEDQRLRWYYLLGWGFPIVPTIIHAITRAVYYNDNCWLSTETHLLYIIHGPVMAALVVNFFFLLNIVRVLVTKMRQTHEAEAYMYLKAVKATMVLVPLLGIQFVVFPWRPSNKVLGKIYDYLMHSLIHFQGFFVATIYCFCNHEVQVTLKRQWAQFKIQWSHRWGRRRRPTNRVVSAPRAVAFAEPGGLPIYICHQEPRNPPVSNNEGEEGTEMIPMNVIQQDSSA
T2 sequence (looked up) 2: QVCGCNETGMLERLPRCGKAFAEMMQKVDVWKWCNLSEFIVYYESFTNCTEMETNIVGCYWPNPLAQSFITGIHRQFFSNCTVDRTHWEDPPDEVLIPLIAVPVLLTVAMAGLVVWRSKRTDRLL

T3: rat calcitonin receptor (rat, UniProt P32214 25-516)
T3 construct: whole, on cells; membranes of transiently transfected BHK tk'ts 13 cells (Assay VIII); also called rCTR; rat calcitonin (a) receptor
T3 sequence (looked up): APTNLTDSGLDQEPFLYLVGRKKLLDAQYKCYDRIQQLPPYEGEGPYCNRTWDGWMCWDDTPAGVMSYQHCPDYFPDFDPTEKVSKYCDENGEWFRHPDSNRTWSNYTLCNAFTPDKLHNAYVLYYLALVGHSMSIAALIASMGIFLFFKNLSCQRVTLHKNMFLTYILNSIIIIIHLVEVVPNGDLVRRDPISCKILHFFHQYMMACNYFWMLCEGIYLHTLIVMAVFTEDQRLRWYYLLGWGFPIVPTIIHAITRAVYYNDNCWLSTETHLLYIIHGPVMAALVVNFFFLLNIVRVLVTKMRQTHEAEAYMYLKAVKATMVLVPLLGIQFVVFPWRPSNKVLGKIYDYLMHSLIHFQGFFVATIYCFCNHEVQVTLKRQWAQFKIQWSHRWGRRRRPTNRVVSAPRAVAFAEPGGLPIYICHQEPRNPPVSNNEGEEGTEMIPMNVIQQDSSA

T4: human amylin 3(a) receptor (human calcitonin receptor plus RAMP-3) (human, UniProt P30988 25-474; O60896 24-148, limits assumed)
T4 construct: whole, on cells; Whole cells in the luciferase assay (Assay II a); also called hAmylin-R; human amylin receptor
T4 sequence (looked up) 1: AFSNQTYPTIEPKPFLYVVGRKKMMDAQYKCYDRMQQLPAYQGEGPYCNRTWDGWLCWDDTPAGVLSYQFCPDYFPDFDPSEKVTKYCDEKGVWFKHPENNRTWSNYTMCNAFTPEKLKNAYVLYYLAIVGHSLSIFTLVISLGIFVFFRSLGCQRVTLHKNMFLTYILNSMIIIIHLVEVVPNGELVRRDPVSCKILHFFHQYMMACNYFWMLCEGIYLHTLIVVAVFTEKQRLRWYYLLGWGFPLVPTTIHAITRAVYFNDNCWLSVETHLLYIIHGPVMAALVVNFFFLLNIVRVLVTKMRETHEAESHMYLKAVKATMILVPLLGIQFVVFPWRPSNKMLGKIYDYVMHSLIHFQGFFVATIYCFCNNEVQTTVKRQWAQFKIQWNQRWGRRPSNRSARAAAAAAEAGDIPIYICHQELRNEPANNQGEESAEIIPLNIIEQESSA
T4 sequence (looked up) 2: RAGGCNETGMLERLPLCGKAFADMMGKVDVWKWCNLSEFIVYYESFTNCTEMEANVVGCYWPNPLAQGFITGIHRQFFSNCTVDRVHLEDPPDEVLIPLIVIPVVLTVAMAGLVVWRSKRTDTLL

T5: human calcitonin receptor (human, UniProt P30988 25-474)
T5 sequence (looked up): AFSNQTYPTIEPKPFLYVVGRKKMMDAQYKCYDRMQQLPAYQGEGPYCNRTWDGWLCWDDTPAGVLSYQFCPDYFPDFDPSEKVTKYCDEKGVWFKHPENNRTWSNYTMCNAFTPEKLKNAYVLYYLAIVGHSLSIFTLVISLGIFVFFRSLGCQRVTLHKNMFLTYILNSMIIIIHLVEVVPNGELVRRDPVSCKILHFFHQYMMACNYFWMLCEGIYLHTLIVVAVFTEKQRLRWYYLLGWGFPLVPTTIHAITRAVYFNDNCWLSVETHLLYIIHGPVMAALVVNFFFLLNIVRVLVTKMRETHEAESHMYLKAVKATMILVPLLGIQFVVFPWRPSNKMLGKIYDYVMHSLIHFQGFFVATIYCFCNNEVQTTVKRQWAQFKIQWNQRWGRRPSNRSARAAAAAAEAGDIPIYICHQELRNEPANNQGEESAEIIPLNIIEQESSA


Tests used:
[1] = target: T1, human calcitonin receptor; assay: cell-based or functional assay
[2] = target: T2, rat amylin receptor (rat calcitonin …); assay: SPA competition with 125I-rat amylin, membranes of BHK cells with rat calcitonin receptor + rat RAMP3 (Assay VI)
[3] = target: T3, rat calcitonin receptor; assay: SPA competition with 125I-calcitonin, membranes of BHK cells with rat calcitonin receptor (Assay VIII)
[4] = target: T4, human amylin 3(a) receptor (human …); assay: SPA competition binding, displacement of 125I-rat amylin from membranes of Amylin 3(a)/CRE-luc BHK cells (Assay V)
Summary of the method: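 Cell membranes were prepared by homogenisation in Na-HEPES/EDTA buffer, pH 7.4, and stored at −80° C. They were then coupled to SPA beads at 35 ng/μL final and exposed to compounds in assay buffer containing CaCl2, MgCl₂, OA and Tween20. After 120 min at 25° C, plates were counted and IC₅₀ derived.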

[5] = target: T4, human amylin 3(a) receptor (human …); assay: cell-based or functional assay
[6] = target: T5, human calcitonin receptor; assay: cell-based or functional assay; remark: listed apart in the source

hCTR funct. EC50 [1] | IC50 [2] | IC50 [3] | IC50 [4] | Ratio hCT/hAmylin funct. [5] | hAmylin-R funct. EC50 [5] | hCTR funct. EC50 [6] | Binder
5.32 nM | – | – | – | – | – | – | KCNTATCATQRLAEFLRHSSPNFGAIPSSTNVGSNTY (alpha-amino group of N-terminal Lys1 acylated with C20 diacid via gGlu-2xOEG linker; disulfide Cys2-Cys7; C-terminal amide, h-amylin derivative; disulfide bridge and C-terminal amide as told for human amylin; also called compound 19)
– | 0.383 nM | 38 nM | – | – | – | – | K([AEEA-γGlu-C20 diacid])CNTATCATQRLANFLRHSSPNFGAIPSSTNVGSRTY-NH2 (disulfide 2-7 (inferred), analogue of human amylin; also called compound 38)
– | 0.335 nM | 159 nM | – | – | – | – | K([γGlu-γGlu-C20 diacid])CNTATCATQRLADFLRHSSPNFGAIPSSTNVGSRTY-NH2 (disulfide 2-7 (inferred), analogue of human amylin; also called compound 52)
– | – | – | 0.142 nM | 1.8 | 0.101 nM | 0.185 nM | K([γGlu-C20 diacid])CNTATCATQRLAEFLRHSSPNFGAIPSSTNVGSNTP-NH2 (disulfide 2-7; N-terminus assumed; SMILES CC[C@H](C)[C@H](NC(=O)[C@H](C)NC(=O)CNC(=O)[C@H](Cc1ccccc1)NC(=O)[C@H](CC(N)=O)NC(=O)[C@@H]1CCCN1C(=O)[C@H](CO)NC(=O)[C@H](CO)NC(=O)[C@H](Cc1c[nH]cn1)NC(=O)[C@H](CCCNC(=N)N)NC(=O)[C@H](CC(C)C)NC(=O)[C@H](Cc1ccccc1)NC(=O)[C@H](CCC(=O)O)NC(=O)[C@H](C)NC(=O)[C@H](CC(C)C)NC(=O)[C@H](CCCNC(=N)N)NC(=O)[C@H](CCC(N)=O)NC(=O)[C@@H](NC(=O)[C@H](C)NC(=O)[C@@H]1CSSC[C@H](NC(=O)[C@@H](N)CCCCNC(=O)CC[C@H](NC(=O)CCCCCCCCCCCCCCCCCCC(=O)O)C(=O)O)C(=O)N[C@@H](CC(N)=O)C(=O)N[C@@H]([C@@H](C)O)C(=O)N[C@@H](C)C(=O)N[C@@H]([C@@H](C)O)C(=O)N1)[C@@H](C)O)C(=O)N1CCC[C@H]1C(=O)N[C@@H](CO)C(=O)N[C@@H](CO)C(=O)N[C@H](C(=O)N[C@@H](CC(N)=O)C(=O)N[C@H](C(=O)NCC(=O)N[C@@H](CO)C(=O)N[C@@H](CC(N)=O)C(=O)N[C@H](C(=O)N1CCC[C@H]1C(N)=O)[C@@H](C)O)C(C)C)[C@@H](C)O, also called compound 12)
– | – | – | 0.403 nM | 6.8 | 0.189 nM | 1.28 nM | {C20 diacid-γGlu}-KCNTATCATQRLAEFLRHSSPNFGAIPSSTNVGKNTY-NH2 (disulfide 2-7; SMILES CC[C@H](C)[C@H](NC(=O)[C@H](C)NC(=O)CNC(=O)[C@H](Cc1ccccc1)NC(=O)[C@H](CC(N)=O)NC(=O)[C@@H]1CCCN1C(=O)[C@H](CO)NC(=O)[C@H](CO)NC(=O)[C@H](Cc1c[nH]cn1)NC(=O)[C@H](CCCNC(=N)N)NC(=O)[C@H](CC(C)C)NC(=O)[C@H](Cc1ccccc1)NC(=O)[C@H](CCC(=O)O)NC(=O)[C@H](C)NC(=O)[C@H](CC(C)C)NC(=O)[C@H](CCCNC(=N)N)NC(=O)[C@H](CCC(N)=O)NC(=O)[C@@H](NC(=O)[C@H](C)NC(=O)[C@@H]1CSSC[C@H](NC(=O)[C@H](CCCCN)NC(=O)CC[C@H](NC(=O)CCCCCCCCCCCCCCCCCCC(=O)O)C(=O)O)C(=O)N[C@@H](CC(N)=O)C(=O)N[C@@H]([C@@H](C)O)C(=O)N[C@@H](C)C(=O)N[C@@H]([C@@H](C)O)C(=O)N1)[C@@H](C)O)C(=O)N1CCC[C@H]1C(=O)N[C@@H](CO)C(=O)N[C@@H](CO)C(=O)N[C@H](C(=O)N[C@@H](CC(N)=O)C(=O)N[C@H](C(=O)NCC(=O)N[C@@H](CCCCN)C(=O)N[C@@H](CC(N)=O)C(=O)N[C@H](C(=O)N[C@@H](Cc1ccc(O)cc1)C(N)=O)[C@@H](C)O)C(C)C)[C@@H](C)O, also called compound 36)
– | – | – | 0.597 nM | 8.9 | 0.386 nM | 3.43 nM | {C20 diacid-γGlu-γGlu}-KCNTATCATQRLAEFLRHSSPNFGAIPSSTNVGSNTY-NH2 (disulfide 2-7; SMILES CC[C@H](C)[C@H](NC(=O)[C@H](C)NC(=O)CNC(=O)[C@H](Cc1ccccc1)NC(=O)[C@H](CC(N)=O)NC(=O)[C@@H]1CCCN1C(=O)[C@H](CO)NC(=O)[C@H](CO)NC(=O)[C@H](Cc1c[nH]cn1)NC(=O)[C@H](CCCNC(=N)N)NC(=O)[C@H](CC(C)C)NC(=O)[C@H](Cc1ccccc1)NC(=O)[C@H](CCC(=O)O)NC(=O)[C@H](C)NC(=O)[C@H](CC(C)C)NC(=O)[C@H](CCCNC(=N)N)NC(=O)[C@H](CCC(N)=O)NC(=O)[C@@H](NC(=O)[C@H](C)NC(=O)[C@@H]1CSSC[C@H](NC(=O)[C@H](CCCCN)NC(=O)CC[C@H](NC(=O)CC[C@H](NC(=O)CCCCCCCCCCCCCCCCCCC(=O)O)C(=O)O)C(=O)O)C(=O)N[C@@H](CC(N)=O)C(=O)N[C@@H]([C@@H](C)O)C(=O)N[C@@H](C)C(=O)N[C@@H]([C@@H](C)O)C(=O)N1)[C@@H](C)O)C(=O)N1CCC[C@H]1C(=O)N[C@@H](CO)C(=O)N[C@@H](CO)C(=O)N[C@H](C(=O)N[C@@H](CC(N)=O)C(=O)N[C@H](C(=O)NCC(=O)N[C@@H](CO)C(=O)N[C@@H](CC(N)=O)C(=O)N[C@H](C(=O)N[C@@H](Cc1ccc(O)cc1)C(N)=O)[C@@H](C)O)C(C)C)[C@@H](C)O, also called compound 15)
